# B1: human S-adenosylmethionine decarboxylase (hAdoMetDC) (Homo sapiens) (protein)
# chain 1: MEAAHFFEGTEKLLEVWFSRQQPDANQGSGDLRTIPRSEWDILLKDVQCSIISVTKTDKQEAYVLSE
# chain 2: SSMFVSKRRFILKTCGTTLLLKALVPLLKLARDYSGFDSIQSFFYSRKNFMKPSHQGYPHRNFQEEIEFLNAIFPNGAAYCMGRMNSDCWYLYTLDFPESRVISQPDQTLEILMSELDPAVMDQFYMKDGVTAKDVTRESGIRDLIPGSVIDATMFNPCGYSMNGMKSDGTYWTIHITPEPEFSYVSFETNLSQTSYDDLIRKVVEVFKPGKFVTTLFVNQSSKCRTVLASPQKIEGFKRLDCQSAMFNDYNFVFTSFAKKQQQQQS
# Substrate: C[S+](CC[C@H](N)C(=O)[O-])C[C@H]1O[C@@H](n2cnc3c(N)ncnc32)[C@H](O)[C@@H]1O
# Test: purified protein
# Details: pyruvoyl group (converted Ser68)
protein,measurement,value
B1,Km,3.1 ± 1.8 µM
